{"source": "patent US20230304010A1", "about": "“COMPOSITIONS AND METHODS FOR TREATING VIRAL INFECTIONS” (priority 2020, published 2023)", "key": {"[1]": {"target": "SARS-CoV-2 Spike (SARS-CoV-2), P0DTC2"}, "[2]": {"target": "SARS-CoV-2 Spike (SARS-CoV-2), P0DTC2", "experiment": "SARS-CoV-2 Spike:ACE2 inhibitor screening kit (Example 4)"}, "[3]": {"target": "SARS-CoV-2 Spike (SARS-CoV-2), P0DTC2", "remark": "listed apart in the source"}, "[4]": {"target": "SARS-CoV-2 Spike (SARS-CoV-2), P0DTC2", "experiment": "inhibitor screening kit; SARS-CoV-2 Spike:ACE2 (Example 3 assay)"}, "ACE2, Q9BYF1 [5]": {"target": "ACE2, Q9BYF1", "sequence (Q9BYF1 18-740 limits assumed)": "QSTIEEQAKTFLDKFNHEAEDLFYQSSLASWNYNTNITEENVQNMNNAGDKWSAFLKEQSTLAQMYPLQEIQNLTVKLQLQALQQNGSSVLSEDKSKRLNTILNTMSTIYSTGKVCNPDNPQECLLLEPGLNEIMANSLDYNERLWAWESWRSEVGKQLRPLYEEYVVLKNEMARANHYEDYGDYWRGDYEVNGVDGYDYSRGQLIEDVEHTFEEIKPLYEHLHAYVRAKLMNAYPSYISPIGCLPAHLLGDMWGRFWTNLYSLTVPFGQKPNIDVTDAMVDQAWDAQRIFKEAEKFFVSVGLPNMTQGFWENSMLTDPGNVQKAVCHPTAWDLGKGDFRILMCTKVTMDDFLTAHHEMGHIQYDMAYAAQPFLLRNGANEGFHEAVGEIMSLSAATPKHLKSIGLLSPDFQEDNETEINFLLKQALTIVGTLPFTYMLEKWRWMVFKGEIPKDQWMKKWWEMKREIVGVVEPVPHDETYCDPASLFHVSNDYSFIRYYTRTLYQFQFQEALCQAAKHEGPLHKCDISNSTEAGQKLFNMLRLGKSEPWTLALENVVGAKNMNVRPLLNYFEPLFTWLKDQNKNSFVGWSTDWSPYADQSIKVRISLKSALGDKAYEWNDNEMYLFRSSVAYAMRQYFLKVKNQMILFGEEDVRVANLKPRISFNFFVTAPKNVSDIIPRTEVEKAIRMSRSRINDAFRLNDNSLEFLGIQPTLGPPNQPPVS"}, "ACE2, Q9BYF1 [6]": {"target": "ACE2, Q9BYF1", "experiment": "inhibitor screening kit, ADGN-106 nanoparticles (Example 6, section A)"}, "[7]": {"target": "SARS-CoV-2 Spike (SARS-CoV-2), P0DTC2", "experiment": "inhibitor screening kit; ACE2:SARS-CoV-2 Spike (Example 4 assay)"}, "[8]": {"target": "SARS-CoV-2 Spike (SARS-CoV-2), P0DTC2", "experiment": "ACE2:SARS-CoV-2 Spike inhibitor screening kit (Example 3)"}, "ACE2, Q9BYF1 [9]": {"target": "ACE2, Q9BYF1", "experiment": "inhibitor screening kit, ADGN-106 nanoparticles (Example 6, section B)"}, "[10]": {"target": "SARS-CoV-2 Spike (SARS-CoV-2), P0DTC2", "experiment": "SARS-CoV-2 Spike:ACE2 inhibitor screening kit (Example 4); Table 7 prints 38.6"}, "[11]": {"target": "SARS-CoV-2 Spike (SARS-CoV-2), P0DTC2", "experiment": "ACE2:SARS-CoV-2 Spike kit, ACE2 on plate, Spike-Fc added; competitor ACE2"}}, "note": "Where “and” joins values, the source holds several entries; their conditions need not be identical. Equal entries are not always repeated. Where two headings read alike, the source gives them in different places."}
{"binder": "Seq32 (LNCOV-21)/ADGN-106 nanoparticle complex (protein, modifications not checked) peptide 1: IEEQAKTFLDKFNHEAEDLFYQSLWRALWRLWRSLWRLLWK peptide 2: LWRALWRLWRSLWRLLWK", "values": [{"measurement": "IC50", "setting": "[1]", "result": "24.5 nM and 7.2 nM"}]}
{"binder": "EQAKTFLDKFNHEAEDLF (modifications not checked)", "note": "[Seq24 (LNCOV-19)]", "values": [{"measurement": "IC50", "setting": "[2]", "result": 570, "unit": "nM"}, {"measurement": "IC50", "setting": "[3]", "result": 570000, "unit": "nM"}, {"measurement": "IC50", "setting": "[4]", "result": 1300, "unit": "nM"}]}
{"binder": "Seq20 (LNCOV-24)/ADGN-106 nanoparticle complex (modifications not checked) peptide 1: SYGFQPTNGVLWRALWRLWRSLWRLLWK peptide 2: LWRALWRLWRSLWRLLWK", "values": [{"measurement": "IC50", "setting": "ACE2, Q9BYF1 [5]", "result": "3.7 nM and 8.7 nM"}, {"measurement": "fold more potent than SBP-1-ADGN-106/ADGN-106 complex", "setting": "ACE2, Q9BYF1 [6]", "result": 6, "unit": "fold"}, {"measurement": "fold more potent than SBP-1 peptide/ADGN-106 complex", "setting": "ACE2, Q9BYF1 [6]", "result": 40, "unit": "fold"}]}
{"binder": "EQAKTFLDKFNHEAEDLFPKWSAFLKEQSTLAQMYG (modifications not checked)", "note": "[Seq27 (LNCOV-27)]", "values": [{"measurement": "fold more potent than SBP-1 coupled to ADGN-106", "setting": "[2]", "result": 3.5, "unit": "fold"}, {"measurement": "fold more potent than free SBP-1", "setting": "[2]", "result": 7, "unit": "fold"}, {"measurement": "IC50", "setting": "[7]", "result": 37.4, "unit": "nM"}, {"measurement": "IC50", "setting": "[8]", "result": 50, "unit": "nM"}, {"measurement": "fold more potent than SBP-1 coupled to ADGN-106", "setting": "[8]", "result": 6, "unit": "fold"}, {"measurement": "fold more potent than free SBP-1", "setting": "[8]", "result": 15, "unit": "fold"}, {"measurement": "IC50", "setting": "[4]", "result": 66.1, "unit": "nM"}]}
{"binder": "Seq21 (LNCOV-13)/ADGN-106 nanoparticle complex (modifications not checked) peptide 1: GFQPTNGVKLWRALWRLWRSLWRLLWK peptide 2: LWRALWRLWRSLWRLLWK", "values": [{"measurement": "IC50", "setting": "ACE2, Q9BYF1 [5]", "result": "5.2 nM and 11.2 nM"}]}
{"binder": "Seq39 (LNCOV-31) (modifications not checked) peptide: EQAKTFLDKFNHEAEDLFPKWSAFLKEQSTLAQMYGLWRALWRLWRSLWRLLWK", "values": [{"measurement": "IC50", "setting": "[7]", "result": 68.4, "unit": "nM"}, {"measurement": "fold increase of efficiency over the uncoupled peptide (Seq27/Seq28)", "setting": "[8]", "result": 1.4, "unit": "fold"}, {"measurement": "IC50", "setting": "[4]", "result": 55.2, "unit": "nM"}]}
{"binder": "Seq40 (LNCOV-32) (modifications not checked) peptide: KTFLDKFNHEAEDLFPKWSAFLKEQSTLAQMYGLWRALWRLWRSLWRLLWK", "values": [{"measurement": "IC50", "setting": "[7]", "result": 85.4, "unit": "nM"}, {"measurement": "fold increase of efficiency over the uncoupled peptide (Seq27/Seq28)", "setting": "[8]", "result": 1.4, "unit": "fold"}, {"measurement": "IC50", "setting": "[4]", "result": 45.1, "unit": "nM"}]}
{"binder": "Seq17 (LNCOV-15)/ADGN-106 nanoparticle complex (modifications not checked) peptide 1: NGVEGFNKLWRALWRLWRSLWRLLWK peptide 2: LWRALWRLWRSLWRLLWK", "values": [{"measurement": "IC50", "setting": "ACE2, Q9BYF1 [5]", "result": "3.4 nM and 2.7 nM"}, {"measurement": "fold more potent than SBP-1-ADGN-106/ADGN-106 complex", "setting": "ACE2, Q9BYF1 [6]", "result": 6, "unit": "fold"}, {"measurement": "fold more potent than SBP-1 peptide/ADGN-106 complex", "setting": "ACE2, Q9BYF1 [6]", "result": 40, "unit": "fold"}, {"measurement": "fold more potent than SBP-1-ADGN-106/ADGN-106 complex", "setting": "ACE2, Q9BYF1 [9]", "result": 4, "unit": "fold"}, {"measurement": "fold more potent than SBP-1 peptide/ADGN-106 complex", "setting": "ACE2, Q9BYF1 [9]", "result": 35, "unit": "fold"}]}
{"binder": "KTFLDKFNHEAEDLFPGPKWSAFLKEQSTLAQMYG (modifications not checked)", "note": "[Seq28 (LNCOV-20)]", "values": [{"measurement": "fold more potent than SBP-1 coupled to ADGN-106", "setting": "[2]", "result": 3.5, "unit": "fold"}, {"measurement": "fold more potent than free SBP-1", "setting": "[2]", "result": 7, "unit": "fold"}, {"measurement": "IC50", "setting": "[7]", "result": 38.6, "unit": "nM"}, {"measurement": "IC50", "setting": "[8]", "result": 50, "unit": "nM"}, {"measurement": "fold more potent than SBP-1 coupled to ADGN-106", "setting": "[8]", "result": 6, "unit": "fold"}, {"measurement": "fold more potent than free SBP-1", "setting": "[8]", "result": 15, "unit": "fold"}, {"measurement": "IC50", "setting": "[10]", "result": 38.5, "unit": "nM"}, {"measurement": "IC50", "setting": "[11]", "result": 38.6, "unit": "nM"}, {"measurement": "IC50", "setting": "[4]", "result": 58.7, "unit": "nM"}]}
{"binder": "Seq38 (LNCOV-30)/ADGN-106 nanoparticle complex (protein, modifications not checked) peptide 1: NMTQGFWENPGGPTAWDLGKLWRALWRLWRSLWRLLWK peptide 2: LWRALWRLWRSLWRLLWK", "values": [{"measurement": "IC50", "setting": "[1]", "result": "91.4 nM and 49.7 nM"}]}
{"binder": "KTFLDKFNHEAEDLFLWRALWRLWRSLWRLLWK (modifications not checked)", "note": "[Seq34 (LNCOV-25)]", "values": [{"measurement": "IC50", "setting": "[7]", "result": "> 1000", "unit": "nM"}, {"measurement": "IC50", "setting": "[4]", "result": "> 1000", "unit": "nM"}]}
{"binder": "KTFLDKFNHEAEDLF (modifications not checked)", "note": "[Seq25 (LNCOV-33)]", "values": [{"measurement": "IC50", "setting": "[7]", "result": 1900, "unit": "nM"}, {"measurement": "IC50", "setting": "[4]", "result": 2500, "unit": "nM"}]}
{"binder": "TAWDLGKGDFRILWRALWRLWRSLWRLLWK (modifications not checked)", "note": "[Seq36 (LNCOV-28)]", "values": [{"measurement": "IC50", "setting": "[7]", "result": "> 1000", "unit": "nM"}, {"measurement": "IC50", "setting": "[4]", "result": "> 1000", "unit": "nM"}]}
{"binder": "NMTQGFWENSMLTD (modifications not checked)", "note": "[Seq30 (LNCOV-36)]", "values": [{"measurement": "IC50", "setting": "[7]", "result": "> 10000", "unit": "nM"}, {"measurement": "IC50", "setting": "[4]", "result": "> 10000", "unit": "nM"}]}
{"binder": "Seq35 (LNCOV-26)/ADGN-106 nanoparticle complex (protein, modifications not checked) peptide 1: KTFLDKFNHEAEDLFYSLWRALWRLWRSLWRLLWK peptide 2: LWRALWRLWRSLWRLLWK", "values": [{"measurement": "IC50", "setting": "[1]", "result": "217 nM and 55.4 nM"}]}
{"binder": "KTFLDKFNHEAEDLFYSLWRALWRLWRSLWRLLWK (modifications not checked)", "note": "[Seq35 (LNCOV-26)]", "values": [{"measurement": "IC50", "setting": "[7]", "result": 728, "unit": "nM"}, {"measurement": "IC50", "setting": "[4]", "result": 546, "unit": "nM"}]}
{"binder": "NMTQGFWENSMLTDLWRALWRLWRSLWRLLWK (modifications not checked)", "note": "[Seq37 (LNCOV-29)]", "values": [{"measurement": "IC50", "setting": "[7]", "result": 645, "unit": "nM"}, {"measurement": "IC50", "setting": "[4]", "result": "> 1000", "unit": "nM"}]}
{"binder": "TAWDLGKGDFRI (modifications not checked)", "note": "[Seq29 (LNCOV-35)]", "values": [{"measurement": "IC50", "setting": "[7]", "result": "> 10000", "unit": "nM"}, {"measurement": "IC50", "setting": "[4]", "result": "> 10000", "unit": "nM"}]}
{"binder": "NMTQGFWENPGGPTAWDLGK (modifications not checked)", "note": "[Seq31 (LNCOV-37)]", "values": [{"measurement": "IC50", "setting": "[2]", "result": 25000, "unit": "nM"}, {"measurement": "IC50", "setting": "[7]", "result": "> 10000", "unit": "nM"}, {"measurement": "IC50", "setting": "[8]", "result": 25000, "unit": "nM"}, {"measurement": "IC50", "setting": "[4]", "result": "> 10000", "unit": "nM"}]}
{"binder": "KTFLDKFNHEAEDLFYS (modifications not checked)", "note": "[Seq26 (LNCOV-34)]", "values": [{"measurement": "IC50", "setting": "[7]", "result": 2100, "unit": "nM"}, {"measurement": "IC50", "setting": "[4]", "result": 1900, "unit": "nM"}]}
{"binder": "EQAKTFLDKFNHEAEDLFLWRALWRLWRSLWRLLWK (modifications not checked)", "note": "[Seq33 (LNCOV-18)]", "values": [{"measurement": "fold more potent than SBP-1 coupled to ADGN-106", "setting": "[2]", "result": 8, "unit": "fold"}, {"measurement": "fold more potent than free SBP-1", "setting": "[2]", "result": 14, "unit": "fold"}, {"measurement": "IC50", "setting": "[7]", "result": 18.4, "unit": "nM"}, {"measurement": "IC50", "setting": "[11]", "result": 18.4, "unit": "nM"}, {"measurement": "IC50", "setting": "[4]", "result": 178, "unit": "nM"}]}
